A word on the Kd: it is the concentration at which binding is half-saturated.

Targets include HLA-A*02:06; HLA-A*02:02; HLA-A*02:03.
What all share (test): IEDB peptide-MHC binding, purified MHC/competitive/radioactivity; filed as Kd, often an IC50 or EC50 that approximates it; ≥ and ≤ were set here for values at or beyond the usual limits of such assays
The next test has as its target HLA-A*03:01. The conditions noted are these: source organism: Vaccinia virus WR.
A further test concerns the target HLA-A*31:01. Conditions: source organism: Vaccinia virus WR.
A further test addresses HLA-A*33:01. Conditions: source organism: Vaccinia virus WR.
For a further test, the target named is HLA-A*68:01. The conditions noted are these: source organism: Vaccinia virus WR.
In a further test the target is HLA-A*11:01. Conditions: source organism: Vaccinia virus WR.
Setting [1] is: source organism: Mammarenavirus brazilense.
Setting [2] is: source organism: Vaccinia virus WR.
Where [3] appears, read: source organism: Lymphocytic choriomeningitis virus (strain Armstrong).
Where [4] appears, read: source organism: Dengue virus 2 Jamaica/1409/1983.
The mark [5] stands for this setting: source organism: Dengue virus 4 Philippines/H241/1956.

RSASGGVYL: the Kd with HLA-A*02:06 (setting [1]) was determined as 13600 nM; with HLA-A*02:02 (setting [1]), 278 nM; with HLA-A*02:03 (setting [1]) it was 14500 nM.

Turning to TIGTIAGGV, the dissociation constant (Kd) with HLA-A*02:06 (setting [2]) was found to be 1140 nM; with HLA-A*02:02 (setting [2]) it was 298 nM; with HLA-A*02:03 (setting [2]) it was 17.4 nM.

Consider CTSEIQNVT, for which the figures for the dissociation constant (Kd) with HLA-A*02:06 (setting [2]), with HLA-A*02:02 (setting [2]) and with HLA-A*02:03 (setting [2]) were 10200 nM, 188 nM and 5180 nM, respectively.

Turning to VTLNRIKIA, the dissociation constant (Kd) in the test with HLA-A*02:06 (setting [2]) was found to be 625 nM; with HLA-A*02:02 (setting [2]), 13300 nM; in the test with HLA-A*02:03 (setting [2]) it was 407 nM.

For VTYNIKPVIV, the figures for the dissociation constant Kd in the test with HLA-A*02:06 (setting [2]), in the test with HLA-A*02:02 (setting [2]) and with HLA-A*02:03 (setting [2]) were 358 nM, 4920 nM and 116 nM, respectively.

KCMSAALKNL: the equilibrium dissociation constant (Kd) was determined as 14000 nM with HLA-A*02:06 (setting [3]), 57.9 nM with HLA-A*02:02 (setting [3]) and 192 nM in the test with HLA-A*02:03 (setting [3]).

As to DQDTMLFASA, the dissociation constant Kd with HLA-A*02:06 (setting [2]) was 1720 nM; with HLA-A*02:02 (setting [2]), 891 nM; with HLA-A*02:03 (setting [2]), 663 nM.

KQLGQVMLLI: the Kd in the test with HLA-A*02:06 (setting [4]) stood at 11 nM.

In the case of YLSDSDNIKI, the values for the dissociation constant Kd with HLA-A*02:06 (setting [2]), with HLA-A*02:02 (setting [2]) and in the test with HLA-A*02:03 (setting [2]) were 906 nM, 16.3 nM and 109 nM, respectively.

For the sequence IVILFIMFM, the values for the Kd in the test with HLA-A*02:06 (setting [2]), in the test with HLA-A*02:02 (setting [2]) and in the test with HLA-A*02:03 (setting [2]) were 741 nM, 1860 nM and 1680 nM, respectively.

Take SMVSAGSGEV: in the test with HLA-A*02:03 (source organism: Dengue virus 1 Brazil/97-11/1997), the Kd was determined as 144 nM.

Consider QLVKDESIQL, for which the dissociation constant Kd is 1810 nM with HLA-A*02:06 (setting [2]), 157 nM in the test with HLA-A*02:02 (setting [2]) and 130 nM in the test with HLA-A*02:03 (setting [2]).

For SLCPTKKLV, the equilibrium dissociation constant (Kd) was 11900 nM in the test with HLA-A*02:06 (setting [2]), 3160 nM with HLA-A*02:02 (setting [2]) and 2660 nM in the test with HLA-A*02:03 (setting [2]).

For the sequence YLPEVISTIA, the values for the dissociation constant (Kd) in the test with HLA-A*02:06 (setting [2]), in the test with HLA-A*02:02 (setting [2]) and with HLA-A*02:03 (setting [2]) were 17.7 nM, 10.9 nM and 0.955 nM, respectively.

On to YLSSRAKLAL, for which the Kd with HLA-A*02:03 (setting [5]) was 28.1 nM.

With YLGIFKNNDV, the equilibrium dissociation constant (Kd) with HLA-A*02:06 (setting [2]) is 285 nM; with HLA-A*02:02 (setting [2]) it was 14.8 nM; in the test with HLA-A*02:03 (setting [2]) it was 16.9 nM.

As for GMCCIITASI, the Kd in the test with HLA-A*02:03 (setting [4]) worked out at 84.1 nM.

For MLDDFSAGA, the Kd in the test with HLA-A*02:06 (setting [2]) was 114 nM; in the test with HLA-A*02:02 (setting [2]), 68.4 nM; in the test with HLA-A*02:03 (setting [2]) it was 73.1 nM.

As for NLEELTTVFI, the equilibrium dissociation constant (Kd) came out at 12300 nM with HLA-A*02:06 (setting [2]), 418 nM with HLA-A*02:02 (setting [2]) and 6500 nM with HLA-A*02:03 (setting [2]).

For VTSPLTGNNT, the Kd in the test with HLA-A*02:06 (setting [2]) came to 5130 nM; with HLA-A*02:02 (setting [2]), 1450 nM; with HLA-A*02:03 (setting [2]), 2500 nM.

Turning to RLAANAICSA, in the test with HLA-A*02:03 (setting [4]), the Kd amounted to 127 nM.

Consider VLTSVDIET, for which the equilibrium dissociation constant (Kd) in the test with HLA-A*02:06 (setting [2]) was determined as 13.7 nM; with HLA-A*02:02 (setting [2]), 382 nM; in the test with HLA-A*02:03 (setting [2]) it was 11300 nM.

Consider WLKDSAIMV, for which the equilibrium dissociation constant (Kd) with HLA-A*02:06 (setting [2]) was 2280 nM; in the test with HLA-A*02:02 (setting [2]), 191 nM; with HLA-A*02:03 (setting [2]), 27.9 nM.

As for LLDEPLSPDT, the equilibrium dissociation constant (Kd) with HLA-A*02:06 (setting [2]) amounted to 7840 nM; with HLA-A*02:02 (setting [2]) it was 8510 nM; in the test with HLA-A*02:03 (setting [2]) it was 10100 nM.

As to SQIFNIISYI, the equilibrium dissociation constant (Kd) with HLA-A*02:06 (setting [2]) is 23.5 nM; with HLA-A*02:02 (setting [2]), 61.7 nM; with HLA-A*02:03 (setting [2]), 181 nM.

For YQNEVTPEYI, the dissociation constant (Kd) came out at 2.59 nM with HLA-A*02:06 (setting [2]), 2.74 nM with HLA-A*02:02 (setting [2]) and 0.209 nM in the test with HLA-A*02:03 (setting [2]).

Take FMTATPPGAT: the Kd with HLA-A*02:03 (setting [5]) worked out at 29.4 nM.

Turning to SQVNPITLTA, in the test with HLA-A*02:06 (setting [4]), the Kd was found to be 129 nM.

For PLNEAIMAV, in the test with HLA-A*02:03 (setting [4]), the equilibrium dissociation constant (Kd) was 18.3 nM.

In the case of ESNIEIMDK, the Kd in the test with HLA-A*03:01 is 15500 nM; in the test with HLA-A*31:01, no less than 77900 nM; with HLA-A*33:01, no less than 77700 nM; with HLA-A*68:01, 11.2 nM; with HLA-A*11:01, 10800 nM.

Consider LLSINSSFY, for which the Kd is 986 nM with HLA-A*03:01; 2390 nM with HLA-A*31:01; 6340 nM with HLA-A*33:01; 3460 nM with HLA-A*68:01; 479 nM with HLA-A*11:01.

ELYVSSSYK: the Kd was 0.73 nM in the test with HLA-A*03:01; no less than 77900 nM in the test with HLA-A*31:01; no less than 54200 nM with HLA-A*33:01; 6.71 nM in the test with HLA-A*68:01; 12.4 nM with HLA-A*11:01.

LSKWHTSAR: the Kd is 5830 nM with HLA-A*03:01; 1.34 nM with HLA-A*31:01; 15.3 nM with HLA-A*33:01; 20.7 nM in the test with HLA-A*68:01; 3430 nM with HLA-A*11:01.

The values are drawn from the Immune Epitope Database (IEDB).
